In publication PMC9482650, “Quantitative fragmentomics allow affinity mapping of interactomes” (Nature Communications, 2022):

T1: SIPA1L2, Q9P2F8
T1 sequence (Q9P2F8 945-1036, limits assumed, looked up): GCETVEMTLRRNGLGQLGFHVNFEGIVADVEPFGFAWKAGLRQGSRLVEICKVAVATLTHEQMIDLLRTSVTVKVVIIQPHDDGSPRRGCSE

T2: PDZD7_3, Q9H5P4
T2 sequence (Q9H5P4 857-944, limits assumed, looked up): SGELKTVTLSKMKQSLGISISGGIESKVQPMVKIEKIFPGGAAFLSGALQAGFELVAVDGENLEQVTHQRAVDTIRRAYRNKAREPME

T3: HTRA3, P83110
T3 sequence (P83110 354-453, limits assumed, looked up): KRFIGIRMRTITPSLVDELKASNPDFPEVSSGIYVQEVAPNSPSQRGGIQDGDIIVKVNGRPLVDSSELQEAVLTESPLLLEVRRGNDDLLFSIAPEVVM

T4: FRMPD1, Q5SYB0
T4 sequence (Q5SYB0 52-145, limits assumed, looked up): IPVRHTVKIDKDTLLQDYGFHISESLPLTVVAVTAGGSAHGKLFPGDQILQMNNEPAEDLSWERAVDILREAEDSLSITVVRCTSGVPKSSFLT

T5: GRIP1_5, Q9Y3R0
T5 sequence (Q9Y3R0 568-668, limits assumed, looked up): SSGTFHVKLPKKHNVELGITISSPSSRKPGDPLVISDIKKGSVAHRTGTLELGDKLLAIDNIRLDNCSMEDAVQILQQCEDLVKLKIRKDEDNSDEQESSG

T6: TJP3_3, O95049
T6 sequence (O95049 375-456, limits assumed, looked up): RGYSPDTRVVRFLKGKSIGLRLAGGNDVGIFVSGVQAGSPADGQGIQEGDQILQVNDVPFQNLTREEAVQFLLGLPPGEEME

T7: PDZD2_2, O15018
T7 sequence (O15018 329-429, limits assumed, looked up): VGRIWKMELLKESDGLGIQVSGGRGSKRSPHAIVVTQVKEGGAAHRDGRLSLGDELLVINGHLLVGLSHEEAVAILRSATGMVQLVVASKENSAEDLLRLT

T8: GRIP1_4, Q9Y3R0
T8 sequence (Q9Y3R0 467-571, limits assumed, looked up): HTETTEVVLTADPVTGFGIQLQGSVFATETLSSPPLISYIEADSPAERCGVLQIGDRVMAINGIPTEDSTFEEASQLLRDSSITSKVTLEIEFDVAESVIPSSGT

T9: SNTG2, Q9NY99
T9 sequence (Q9NY99 68-166, limits assumed, looked up): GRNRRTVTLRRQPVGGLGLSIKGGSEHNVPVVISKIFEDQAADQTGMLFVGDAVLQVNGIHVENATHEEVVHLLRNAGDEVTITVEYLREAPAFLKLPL

T10: APBA3_1, O96018
T10 sequence (O96018 389-490, limits assumed, looked up): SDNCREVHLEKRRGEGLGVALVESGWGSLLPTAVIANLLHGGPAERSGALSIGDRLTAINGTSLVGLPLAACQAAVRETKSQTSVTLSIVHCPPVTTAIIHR

T11: DLG3_2, Q92796
T11 sequence (Q92796 221-321, limits assumed, looked up): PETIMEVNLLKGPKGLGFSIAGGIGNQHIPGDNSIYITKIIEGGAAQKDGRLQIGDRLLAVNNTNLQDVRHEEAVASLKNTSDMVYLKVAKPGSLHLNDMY


Target: FRMPD4, Q14CM0
Assay: holdup assay
Set-up: key: below the threshold = too weak to quantify, mostly under pKd 3.1 to 4
Settings: plain residues with an end cap or a label only (N-terminal biotin on a linker: ttds)

Sequence of FRMPD4, Q14CM0 (Q14CM0 67-160): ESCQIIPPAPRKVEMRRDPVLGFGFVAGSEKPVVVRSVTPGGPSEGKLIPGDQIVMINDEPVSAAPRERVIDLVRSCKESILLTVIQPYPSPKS

How did the pKd turn out when DPRNTQTSQI [ABRAXAS2, Q15018] was run?
Its pKd is “below the threshold”.

Target: T1, SIPA1L2, Q9P2F8
Assay: holdup assay
Set-up: key: below the threshold = too weak to quantify, mostly under pKd 3.1 to 4
Settings: plain residues with an end cap or a label only (N-terminal biotin on a linker: ttds)

DPRNTQTSQI [ABRAXAS2, Q15018] was tested. Which pKd did it give?
The pKd was “below the threshold”.

Target: T2, PDZD7_3, Q9H5P4
Assay: holdup assay
Set-up: key: below the threshold = too weak to quantify, mostly under pKd 3.1 to 4
Settings: plain residues with an end cap or a label only (N-terminal biotin on a linker: ttds)

How did the pKd turn out when DPRNTQTSQI [ABRAXAS2, Q15018] was run?
Its pKd is 4.31.

Target: GORASP1, Q9BQQ3
Assay: holdup assay
Set-up: key: below the threshold = too weak to quantify, mostly under pKd 3.1 to 4
Settings: plain residues with an end cap or a label only (N-terminal biotin on a linker: ttds)

Sequence of GORASP1, Q9BQQ3 (Q9BQQ3 1-208): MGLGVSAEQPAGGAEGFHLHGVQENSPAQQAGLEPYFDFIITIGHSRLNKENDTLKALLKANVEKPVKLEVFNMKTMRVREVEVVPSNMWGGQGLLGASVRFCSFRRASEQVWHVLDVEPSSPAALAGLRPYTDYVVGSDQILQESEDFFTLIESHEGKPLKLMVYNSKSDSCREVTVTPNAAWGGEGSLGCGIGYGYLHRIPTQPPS

DPRNTQTSQI [ABRAXAS2, Q15018] was tested. Which pKd did it give?
The pKd was 3.56.

Target: MAGI2_2, Q86UL8
Assay: holdup assay
Set-up: key: below the threshold = too weak to quantify, mostly under pKd 3.1 to 4
Settings: plain residues with an end cap or a label only (N-terminal biotin on a linker: ttds)

Sequence of MAGI2_2, Q86UL8 (Q86UL8 410-522): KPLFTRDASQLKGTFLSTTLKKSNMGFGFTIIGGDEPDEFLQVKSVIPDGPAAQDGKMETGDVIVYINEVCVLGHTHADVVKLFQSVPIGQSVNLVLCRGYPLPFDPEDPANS

DPRNTQTSQI [ABRAXAS2, Q15018] was tested. Which pKd did it give?
The pKd was 3.59.

Target: MAGI2_6, Q86UL8
Assay: holdup assay
Set-up: key: below the threshold = too weak to quantify, mostly under pKd 3.1 to 4
Settings: plain residues with an end cap or a label only (N-terminal biotin on a linker: ttds)

Sequence of MAGI2_6, Q86UL8 (Q86UL8 1141-1229): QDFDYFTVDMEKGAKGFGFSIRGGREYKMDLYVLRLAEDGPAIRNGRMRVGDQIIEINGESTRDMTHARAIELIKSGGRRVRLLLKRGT

For DPRNTQTSQI [ABRAXAS2, Q15018], which pKd is on record?
The pKd was “below the threshold”.

Target: LNX1_2, Q8TBB1
Assay: holdup assay
Set-up: key: below the threshold = too weak to quantify, mostly under pKd 3.1 to 4
Settings: plain residues with an end cap or a label only (N-terminal biotin on a linker: ttds)

Sequence of LNX1_2, Q8TBB1 (Q8TBB1 371-470): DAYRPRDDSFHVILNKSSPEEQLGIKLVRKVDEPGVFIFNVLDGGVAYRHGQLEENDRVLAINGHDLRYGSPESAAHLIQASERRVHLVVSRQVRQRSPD

For DPRNTQTSQI [ABRAXAS2, Q15018], which pKd is on record?
The pKd was “below the threshold”.

Target: Inadl_3, Q8NI35
Assay: holdup assay
Set-up: key: below the threshold = too weak to quantify, mostly under pKd 3.1 to 4
Settings: plain residues with an end cap or a label only (N-terminal biotin on a linker: ttds)

Sequence of Inadl_3, Q8NI35 (Q8NI35 359-469): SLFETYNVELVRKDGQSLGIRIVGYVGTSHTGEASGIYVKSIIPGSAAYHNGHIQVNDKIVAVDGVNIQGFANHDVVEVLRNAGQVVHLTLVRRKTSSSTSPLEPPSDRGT

How did the pKd turn out when DPRNTQTSQI [ABRAXAS2, Q15018] was run?
Its pKd is “below the threshold”.

Target: T3, HTRA3, P83110
Assay: holdup assay
Set-up: key: below the threshold = too weak to quantify, mostly under pKd 3.1 to 4
Settings: plain residues with an end cap or a label only (N-terminal biotin on a linker: ttds)

How did the pKd turn out when DPRNTQTSQI [ABRAXAS2, Q15018] was run?
The pKd was “below the threshold”.

Target: T4, FRMPD1, Q5SYB0
Assay: holdup assay
Set-up: key: below the threshold = too weak to quantify, mostly under pKd 3.1 to 4
Settings: plain residues with an end cap or a label only (N-terminal biotin on a linker: ttds)

DPRNTQTSQI [ABRAXAS2, Q15018] was tested. Which pKd did it give?
Its pKd is “below the threshold”.

Target: TJP1_3, Q07157
Assay: holdup assay
Set-up: key: below the threshold = too weak to quantify, mostly under pKd 3.1 to 4
Settings: plain residues with an end cap or a label only (N-terminal biotin on a linker: ttds)

Sequence of TJP1_3, Q07157 (Q07157 416-512): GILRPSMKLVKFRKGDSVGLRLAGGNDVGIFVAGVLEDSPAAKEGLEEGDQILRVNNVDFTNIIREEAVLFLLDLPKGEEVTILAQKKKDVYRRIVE

DPRNTQTSQI [ABRAXAS2, Q15018] was tested. Which pKd did it give?
Its pKd is “below the threshold”.

Target: GRIP2_7, Q9C0E4
Assay: holdup assay
Set-up: key: below the threshold = too weak to quantify, mostly under pKd 3.1 to 4
Settings: plain residues with an end cap or a label only (N-terminal biotin on a linker: ttds)

Sequence of GRIP2_7, Q9C0E4 (Q9C0E4 934-1023): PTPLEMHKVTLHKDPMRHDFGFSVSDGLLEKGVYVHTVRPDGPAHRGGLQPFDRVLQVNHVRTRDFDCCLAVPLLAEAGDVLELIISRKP

For DPRNTQTSQI [ABRAXAS2, Q15018], which pKd is on record?
Its pKd is 3.55.

Target: IL16_3, Q14005
Assay: holdup assay
Set-up: key: below the threshold = too weak to quantify, mostly under pKd 3.1 to 4
Settings: plain residues with an end cap or a label only (N-terminal biotin on a linker: ttds)

Sequence of IL16_3, Q14005 (Q14005 1107-1207): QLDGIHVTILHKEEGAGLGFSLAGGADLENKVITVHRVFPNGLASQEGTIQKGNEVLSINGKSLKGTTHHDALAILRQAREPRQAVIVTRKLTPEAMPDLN

Which pKd does the source give for DPRNTQTSQI [ABRAXAS2, Q15018] here?
The pKd was “below the threshold”.

Target: T5, GRIP1_5, Q9Y3R0
Assay: holdup assay
Set-up: key: below the threshold = too weak to quantify, mostly under pKd 3.1 to 4
Settings: plain residues with an end cap or a label only (N-terminal biotin on a linker: ttds)

Which pKd does the source give for DPRNTQTSQI [ABRAXAS2, Q15018] here?
The pKd was 3.66.

Target: T6, TJP3_3, O95049
Assay: holdup assay
Set-up: key: below the threshold = too weak to quantify, mostly under pKd 3.1 to 4
Settings: plain residues with an end cap or a label only (N-terminal biotin on a linker: ttds)

Which pKd does the source give for DPRNTQTSQI [ABRAXAS2, Q15018] here?
The pKd was “below the threshold”.

Target: HTRA1, Q92743
Assay: holdup assay
Set-up: key: below the threshold = too weak to quantify, mostly under pKd 3.1 to 4
Settings: plain residues with an end cap or a label only (N-terminal biotin on a linker: ttds)

Sequence of HTRA1, Q92743 (Q92743 360-477): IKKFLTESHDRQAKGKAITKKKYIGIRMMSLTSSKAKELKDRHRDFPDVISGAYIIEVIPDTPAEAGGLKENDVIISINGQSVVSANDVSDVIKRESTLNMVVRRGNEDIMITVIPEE

DPRNTQTSQI [ABRAXAS2, Q15018] was tested. Which pKd did it give?
The pKd was 3.64.

Target: T7, PDZD2_2, O15018
Assay: holdup assay
Set-up: key: below the threshold = too weak to quantify, mostly under pKd 3.1 to 4
Settings: plain residues with an end cap or a label only (N-terminal biotin on a linker: ttds)

For DPRNTQTSQI [ABRAXAS2, Q15018], which pKd is on record?
The pKd was 4.44.

Target: Inadl_5, Q8NI35
Assay: holdup assay
Set-up: key: below the threshold = too weak to quantify, mostly under pKd 3.1 to 4
Settings: plain residues with an end cap or a label only (N-terminal biotin on a linker: ttds)

Sequence of Inadl_5, Q8NI35 (Q8NI35 673-780): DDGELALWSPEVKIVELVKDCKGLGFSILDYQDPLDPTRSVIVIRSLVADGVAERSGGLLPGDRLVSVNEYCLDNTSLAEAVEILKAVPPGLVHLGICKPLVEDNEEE

DPRNTQTSQI [ABRAXAS2, Q15018] was tested. Which pKd did it give?
Its pKd is “below the threshold”.

Target: T8, GRIP1_4, Q9Y3R0
Assay: holdup assay
Set-up: key: below the threshold = too weak to quantify, mostly under pKd 3.1 to 4
Settings: plain residues with an end cap or a label only (N-terminal biotin on a linker: ttds)

Which pKd does the source give for DPRNTQTSQI [ABRAXAS2, Q15018] here?
The pKd was “below the threshold”.

Target: FRMPD2_3, Q68DX3
Assay: holdup assay
Set-up: key: below the threshold = too weak to quantify, mostly under pKd 3.1 to 4
Settings: plain residues with an end cap or a label only (N-terminal biotin on a linker: ttds)

Sequence of FRMPD2_3, Q68DX3 (Q68DX3 1073-1166): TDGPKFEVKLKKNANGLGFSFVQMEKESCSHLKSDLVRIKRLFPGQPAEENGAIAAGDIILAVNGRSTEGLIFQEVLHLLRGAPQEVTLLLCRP

Which pKd does the source give for DPRNTQTSQI [ABRAXAS2, Q15018] here?
The pKd was 3.54.

Target: T9, SNTG2, Q9NY99
Assay: holdup assay
Set-up: key: below the threshold = too weak to quantify, mostly under pKd 3.1 to 4
Settings: plain residues with an end cap or a label only (N-terminal biotin on a linker: ttds)

Which pKd does the source give for DPRNTQTSQI [ABRAXAS2, Q15018] here?
Its pKd is 3.7.

Target: T10, APBA3_1, O96018
Assay: holdup assay
Set-up: key: below the threshold = too weak to quantify, mostly under pKd 3.1 to 4
Settings: plain residues with an end cap or a label only (N-terminal biotin on a linker: ttds)

How did the pKd turn out when DPRNTQTSQI [ABRAXAS2, Q15018] was run?
The pKd was “below the threshold”.

Target: LIMK2, P53671
Assay: holdup assay
Set-up: key: below the threshold = too weak to quantify, mostly under pKd 3.1 to 4
Settings: plain residues with an end cap or a label only (N-terminal biotin on a linker: ttds)

Sequence of LIMK2, P53671 (P53671 143-248): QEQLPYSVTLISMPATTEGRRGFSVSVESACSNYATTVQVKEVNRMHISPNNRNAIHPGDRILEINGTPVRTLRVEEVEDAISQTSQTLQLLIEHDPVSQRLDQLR

How did the pKd turn out when DPRNTQTSQI [ABRAXAS2, Q15018] was run?
Its pKd is “below the threshold”.

Target: T11, DLG3_2, Q92796
Assay: holdup assay
Set-up: key: below the threshold = too weak to quantify, mostly under pKd 3.1 to 4
Settings: plain residues with an end cap or a label only (N-terminal biotin on a linker: ttds)

Which pKd does the source give for DPRNTQTSQI [ABRAXAS2, Q15018] here?
Its pKd is 3.81.

Target: HTRA2, O43464
Assay: holdup assay
Set-up: key: below the threshold = too weak to quantify, mostly under pKd 3.1 to 4
Settings: plain residues with an end cap or a label only (N-terminal biotin on a linker: ttds)

Sequence of HTRA2, O43464 (O43464 355-458): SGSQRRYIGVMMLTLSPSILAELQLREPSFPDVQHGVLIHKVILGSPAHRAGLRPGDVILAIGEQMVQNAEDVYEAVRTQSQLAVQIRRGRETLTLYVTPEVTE

For DPRNTQTSQI [ABRAXAS2, Q15018], which pKd is on record?
The pKd was “below the threshold”.

Target: NHERF4_4, Q86UT5
Assay: holdup assay
Set-up: key: below the threshold = too weak to quantify, mostly under pKd 3.1 to 4
Settings: plain residues with an end cap or a label only (N-terminal biotin on a linker: ttds)

Sequence of NHERF4_4, Q86UT5 (Q86UT5 464-550): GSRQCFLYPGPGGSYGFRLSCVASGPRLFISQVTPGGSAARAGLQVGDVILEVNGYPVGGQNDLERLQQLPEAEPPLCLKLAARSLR

With DPRNTQTSQI [ABRAXAS2, Q15018] as the binder, how does the pKd read?
Its pKd is “below the threshold”.
